Tests used:
GST-TLX ΔN (Δ1-187) = GST-TLX ΔN (Δ1-187) (mouse, UniProt Q64104 188-385); assay: pull-down
GST-TLX ΔC341-385 = GST-TLX ΔC341-385 (mouse, UniProt Q64104 1-340); assay: pull-down
Sequence of GST-TLX ΔC341-385 (Q64104 1-340, stated change not applied): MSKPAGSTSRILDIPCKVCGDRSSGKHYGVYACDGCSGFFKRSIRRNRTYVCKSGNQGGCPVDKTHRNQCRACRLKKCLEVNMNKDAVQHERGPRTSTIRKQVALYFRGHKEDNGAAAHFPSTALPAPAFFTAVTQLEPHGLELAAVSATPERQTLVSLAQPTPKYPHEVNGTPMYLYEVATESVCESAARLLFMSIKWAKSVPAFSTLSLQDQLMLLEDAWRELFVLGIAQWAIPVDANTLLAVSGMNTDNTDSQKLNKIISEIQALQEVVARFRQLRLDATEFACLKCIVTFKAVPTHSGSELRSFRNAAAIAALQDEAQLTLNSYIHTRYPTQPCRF

Sequence of GST-TLX ΔN (Δ1-187) (Q64104 188-385, stated change not applied): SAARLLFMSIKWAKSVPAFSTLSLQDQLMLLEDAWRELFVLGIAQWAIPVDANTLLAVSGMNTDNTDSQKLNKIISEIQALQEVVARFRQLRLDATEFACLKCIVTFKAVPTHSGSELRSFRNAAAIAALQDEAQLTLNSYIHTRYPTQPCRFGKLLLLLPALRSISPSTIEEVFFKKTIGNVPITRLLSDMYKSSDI

B1: ThioHis-VHL30Δ95-123 (natural protein, UniProt P40337-1 1-213, looked up)
chain: MPRRAENWDEAEVGAEEAGVEEYGPEEDGGEESGAEESGPEESGPEELGAEEEMEAGRPRPVLRSVNSREPSQVIFCNRSPRVVLPVWLNFDGETHDGLLVNQTELFVPSLNVDGQPIFANITLPVYTLKERCLQVVRSLVKPENYRRLDIVRSLYEDLEDHPNVQKDLERLTQERIAHQRMGD
B1: binds (GST-TLX ΔN (Δ1-187)); binds (GST-TLX ΔC341-385).
